According to US20230384326A1 (CANON MEDICAL SYSTEMS, published 2023):

Columns and labels:
mCRP (61-90) peptide = target: T1, mCRP (61-90) peptide (human); experiment: solid phase peptide ELISA (part 2)
T1 peptide: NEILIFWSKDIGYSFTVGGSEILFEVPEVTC

mCRP (121-150) peptide = target: T2, mCRP (121-150) peptide (human); experiment: solid phase peptide ELISA (part 2)
T2 peptide: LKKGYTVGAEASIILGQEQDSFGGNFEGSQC

mCRP (151-180) peptide = target: T3, mCRP (151-180) peptide (human); experiment: solid phase peptide ELISA (part 2)
T3 peptide: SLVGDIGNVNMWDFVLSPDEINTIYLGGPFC

mCRP (31-60) peptide = target: T4, mCRP (31-60) peptide (human); experiment: solid phase peptide ELISA (part 2)
T4 peptide: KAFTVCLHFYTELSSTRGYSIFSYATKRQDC

mCRP (181-206) peptide = target: T5, mCRP (181-206) peptide (human); experiment: solid phase peptide ELISA (part 2)
T5 peptide: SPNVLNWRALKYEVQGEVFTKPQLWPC

mCRP (129) peptide = target: T6, mCRP (129) peptide (human); experiment: solid phase peptide ELISA, antibody 1 ug/mL
T6 peptide: VDGKPRVRKSC
Experimental: (§1) Epitope analysis was performed by the following procedure. [0200] (a) Peptides were immobilized on a plate by standing at 50 ng/well (50 μL/well) for 16 hours at 4° C. […] (b) Solid phase peptides were washed twice with Dulbecco's PBS (D-PBS) (200 μL/well). […] (c) Blocking was performed by adding 200 μL of D-PBS containing 0.1% BSA and 0.05% NaN₃ to each well and leaving it at 4° C. overnight. […] (d) Each well was washed twice with the washing buffer. [0204] (e) The antibody was diluted to 1 μg/mL with the dilution buffer and the diluted solution was added to each well (50 μL/well) and left at 37° C. for 30 minutes. […] (f) Each well was washed four or more times with the washing buffer. […] (g) Anti-mouse IgG (γ-specific)-HRP, a labeled antibody, was added to each well (50 μL/well) and left at 37° C. for 30 minutes. [0207] (h) Each well was washed four or more times with the washing buffer. […] (i) A chromogenic reaction was started by adding a substrate solution (400 μg/mL) to each well (100 μL/well), and the reaction was allowed to proceed for 15 minutes at room temperature in the dark. [0209] (j) After 15 minutes, the reaction was stopped by addition of 1 mol/L sulfuric acid (100 μL/well), and absorbance (490 nm) was measured.
(§2) In the above (e), the same result was obtained even when the antibody concentration added to each well was changed to 5 μg/mL. […] Accordingly, it is believed that there are not only one kind of epitope but also a plurality of kinds of epitopes of human denatured CRP-specific monoclonal antibodies.

mCRP (139) peptide = target: T7, mCRP (139) peptide (human); experiment: solid phase peptide ELISA, antibody 1 ug/mL
T7 peptide: LKKGYTVGAEC
Experimental: as §1, §2

mCRP (159) peptide = target: T8, mCRP (159) peptide (human); experiment: solid phase peptide ELISA, antibody 1 ug/mL
T8 peptide: SFGGNFEGSQC
Experimental: as §1, §2

mCRP (19) peptide = target: T9, mCRP (19) peptide (human); experiment: solid phase peptide ELISA, antibody 1 ug/mL
T9 peptide: QTDMSRKAFVC
Experimental: as §1, §2

mCRP (149) peptide = target: T10, mCRP (149) peptide (human); experiment: solid phase peptide ELISA, antibody 1 ug/mL
T10 peptide: ASIILGQEQDC
Experimental: as §1, §2

mCRP (69) peptide = target: T11, mCRP (69) peptide (human); experiment: solid phase peptide ELISA, antibody 1 ug/mL
T11 peptide: IFSYATKRQDC
Experimental: as §1, §2

mCRP (59) peptide = target: T12, mCRP (59) peptide (human); experiment: solid phase peptide ELISA, antibody 1 ug/mL
T12 peptide: TELSSTRGYSC
Experimental: as §1, §2

mCRP (39) peptide = target: T13, mCRP (39) peptide (human); experiment: solid phase peptide ELISA, antibody 1 ug/mL
T13 peptide: SLKAPLTKPLC
Experimental: as §1, §2

mCRP (169) peptide = target: T14, mCRP (169) peptide (human); experiment: solid phase peptide ELISA, antibody 1 ug/mL
T14 peptide: SLVGDIGNVNC
Experimental: as §1, §2

mCRP (79) peptide = target: T15, mCRP (79) peptide (human); experiment: solid phase peptide ELISA, antibody 1 ug/mL
T15 peptide: NEILIFWSKDC
Experimental: as §1, §2

mCRP (209) peptide = target: T16, mCRP (209) peptide (human); experiment: solid phase peptide ELISA, antibody 1 ug/mL
T16 peptide: KYEVQGEVFTKPQLWPC
Experimental: as §1, §2

mCRP (99) peptide [1] = target: T17, mCRP (99) peptide (human); experiment: solid phase peptide ELISA, antibody 1 ug/mL
T17 peptide: EILFEVPEVTC
Experimental: as §1, §2

mCRP (179) peptide = target: T18, mCRP (179) peptide (human); experiment: solid phase peptide ELISA, antibody 1 ug/mL
T18 peptide: MWDFVLSPDEC
Experimental: as §1, §2

mCRP (29) peptide = target: T19, mCRP (29) peptide (human); experiment: solid phase peptide ELISA, antibody 1 ug/mL
T19 peptide: FPKESDTSYVC
Experimental: as §1, §2

mCRP (49) peptide = target: T20, mCRP (49) peptide (human); experiment: solid phase peptide ELISA, antibody 1 ug/mL
T20 peptide: KAFTVCLHFYC
Experimental: as §1, §2

mCRP (199) peptide = target: T21, mCRP (199) peptide (human); experiment: solid phase peptide ELISA, antibody 1 ug/mL
T21 peptide: SPNVLNWRALC
Experimental: as §1, §2

mCRP (119) peptide = target: T22, mCRP (119) peptide (human); experiment: solid phase peptide ELISA, antibody 1 ug/mL
T22 peptide: ESASGIVEFWC
Experimental: as §1, §2

mCRP (89) peptide = target: T23, mCRP (89) peptide (human); experiment: solid phase peptide ELISA, antibody 1 ug/mL
T23 peptide: IGYSFTVGGSC
Experimental: as §1, §2

mCRP (189) peptide = target: T24, mCRP (189) peptide (human); experiment: solid phase peptide ELISA, antibody 1 ug/mL
T24 peptide: INTIYLGGPFC
Experimental: as §1, §2

mCRP (109) peptide = target: T25, mCRP (109) peptide (human); experiment: solid phase peptide ELISA, antibody 1 ug/mL
T25 peptide: VAPVHICTSWC
Experimental: as §1, §2

mCRP (99) peptide [2] = target: T17, mCRP (99) peptide; experiment: solid phase peptide ELISA
Experimental: as §1
In the above (e), the same result was obtained even when the antibody concentration added to each well was changed to 5 μg/mL. […]

B1: human denatured CRP-specific antibody produced from hybridoma mCRP-3C (antibody, mouse IgG2b, V domains shown)
VH: QVQLQQSGAELVRPGASVKLSCKALDYTFTDYEMHWVKQTPVHGLEWIGAIHPGRGGTAYNQKFKGKATLTADKSSSTAYMELSSLTSEDSGVYYCTSYHGGYWGQGTTLTVSS
VL: DVVMTQTPLSLPVSLGDQASISCRSSQSLVHSNENTYLLWYLQKPGQSPKLLIYKVSNRFSGVPDRFSGSGSGTDFTLKISRVEAEDLGVYFCSQTTHVPWTFGGGTKLEIKR
notes: Mouse IgG2b, kappa; also called 3C antibody
Absorbance (490 nm) (mCRP (61-90) peptide): 1.98 A490
Absorbance (490 nm) (mCRP (121-150) peptide): 0.017 A490
Absorbance (490 nm) (mCRP (151-180) peptide): 0.108 A490
Absorbance (490 nm) (mCRP (31-60) peptide): 0.03 A490
Absorbance (490 nm) (mCRP (181-206) peptide): 0.006 A490
Absorbance (490 nm) (mCRP (129) peptide): 0.002 A490
Absorbance (490 nm) (mCRP (139) peptide): 0.002 A490
Absorbance (490 nm) (mCRP (159) peptide): 0.002 A490
Absorbance (490 nm) (mCRP (19) peptide): 0.004 A490
Absorbance (490 nm) (mCRP (149) peptide): 0.001 A490
Absorbance (490 nm) (mCRP (69) peptide): 0.002 A490
Absorbance (490 nm) (mCRP (59) peptide): 0.001 A490
Absorbance (490 nm) (mCRP (39) peptide): 0.001 A490
Absorbance (490 nm) (mCRP (169) peptide): 0.001 A490
Absorbance (490 nm) (mCRP (79) peptide): 0 A490
Absorbance (490 nm) (mCRP (209) peptide): 0 A490
Absorbance (490 nm) (mCRP (99) peptide [1]): 1.58 A490
Absorbance (490 nm) (mCRP (179) peptide): 0.003 A490
Absorbance (490 nm) (mCRP (29) peptide): -0.001 A490
Absorbance (490 nm) (mCRP (49) peptide): 0 A490
Absorbance (490 nm) (mCRP (199) peptide): 0.006 A490
Absorbance (490 nm) (mCRP (119) peptide): 0.005 A490
Absorbance (490 nm) (mCRP (89) peptide): 0 A490
Absorbance (490 nm) (mCRP (189) peptide): 0.007 A490
Absorbance (490 nm) (mCRP (109) peptide): -0.001 A490

B2: human denatured CRP-specific antibody produced from hybridoma mCRP-12C (antibody, mouse IgG1, V domains shown)
VH: EVQLQQSGAELVKPGASVKLSCTASGFNIKDYYIHWVKQRTDQGLEWIGRIDPEDDETKYAPKFQGKATIITDTSSNTAYLHLSSLTSADTAVYYCASRIYYYDIKGLFDYWGQGTTLTVSS
VL: DIVMTQAPSSLTVTAGEKVTMTCKSSQSLLNSGNQKNYLTWSQQKPGQPPKLLIYWASTRESGVPDRFTGSGSGTDFTLTISSVQAEDLAVYYCQNDYNYPITFGAGTKLELKR
notes: Mouse IgG1, kappa; also called 12C antibody
binding result (mCRP (99) peptide [2]): no binding

B3: human denatured CRP-specific antibody produced from hybridoma mCRP-18A (antibody, mouse IgG2a)
heavy: EVQLQQSGAEFVKPGTSVKLSCTASGFNIKDYYIHWVKQRTEQGLEWIGRIDPEDGETKYAPKFQGKATITADASSNTAYLQLSSLTSEDTAVYYCVSRMYYYGSQGLFDFWGQGTTLTVSSAKTTAPSVYPLAPVCGGTTGSSVTLGCLVKGYFPEPVTLTWNSGSLSSGVHTFPALLQSGLYTLSSSVTVTSNTWPSQTITCNVAHPASSTKVDKKIEPRVPITQNPCPPLKECPPCAAPDLLGGPSVFIFPPKIKDVLMISLSPMVTCVVVDVSEDDPDVQISWFVNNVEVHTAQTQTHREDYNSTLRVVSALPIQHQDWMSGKEFKCKVNNRALPSPIEKTISKPRGPVRAPQVYVLPPPAEEMTKKEFSLTCMITGFLPAEIAVDWTSNGRTEQNYKNTATVLDSDGSYFMYSKLRVQKSTWERGSLFACSVVHEGLHNHLTTKTISHSPGK
light: DIVMTQSPSSLTVTAGEKVTMGCKSSQSLLNSANQKNYLTWYRQKPGQPPKLLIYWASTRESGVPDRFTGSGSGTDFTLTISSVQAEDLAVYYCQNDYNYPLTCGAGTKLDLKRADAAPTVSIFPPSSEQLTSGGASVVCFLNNFYPKDINVKWKIDGSERQNGVLNSWTDQDSKDSTYSMSSTLTLTKDEYERHNSYTCEATHKTSTSPIVKSFNRNEC
notes: Mouse IgG2a, kappa; also called 18A antibody
binding result (mCRP (99) peptide [2]): no binding
